Reference: the nanobody polyreactivity screen of Harvey et al. (2022)

Assay: yeast display, Sf9 membrane polyspecificity reagent, FACS + sequencing; frameworks hold sequencing errors
How it was run: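 Polyreactivity labels are assigned by the sorting gate from which each nanobody was recovered. The gates were low and high (top ~1%), set on anti-HA fluorescence for expression and streptavidin fluorescence for reagent binding. Before sorting, galactose-induced (36–48 hours) yeast display cells were stained for 1 hour at 4 °C with 10% biotinylated, detergent-solubilized Sf9 membrane reagent.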

Sequence	polyreactivity (PSR sort gate)
QVQLVESGGGLVQAGGSLRLSCAASGSNFTFYTMGWYRQEPGKERELVAAINWSGSRTYYADSVKGRFTISRDNAKNTVYLQMNSLKPEDTAVYYCDAYYYTGPTTVESDYWGQGTQVTVSS	high polyreactivity
QVQLVESGGGLVQAGGSLRLSCAASGSIFASNAMGWYRQAPGKEREFVAAIRYSAGITYYADSVKGRFTISRDNAKNTVYLQMNSLKPEDTAVYFCSAYGWVNRWYSRFDYWGQGTQVTVSS	high polyreactivity
QVQLVESGGGLVQAGGSLRLSCAASGFTFWEYALGWYRQAPGKERELVAAISRGTSTYYADSVKGRFTIPRDNAKNTVYLQMNSLKPEDTAVYYCAARQDPPLGYDYWGQGTQVTVSS	low polyreactivity
QVQLVESGGGLVQAGGSLRLSCAASGYTFEPYAMGWYRQAPGKESELVAAISRGGTTNYADSVKGRFTISRDNAKNTVYLQINSLKPEDTAVYYCASSYFRRVFYSIYEYDYWGQGTQVTVSS	low polyreactivity
QVQLVESAGGLVQAGGSLRLSCAASGFTFYTYGMGWYRQAPGKERALVAAITSGVSTNYADSVKGRFTISRDNAKNTVYLQMNSLKPEDTAVYYCNKVGRPAYRWYDYWGQDTQVTVSS	low polyreactivity
QVQLVESGGGLVQAGGRLRLSCAASGTTFWNNAMGWYRQAPGKERELVPGISRSGGSTYYADSVKGRFTISRDNAKNTVYLQMNSLKPEDTAVYYCNKVNYAKRNYWGQGTQVTVSS	low polyreactivity
QVQLVESGGGLVQAGGSLRLSCAASGSIFIVYAMGWYRQAPGKERELVAAISYRGGSTYADSVKGRFTISRDNAKNTVYLQMNSLKPEDTAVYYCAADDLSYVGYYYGYVDDDYWGQGTQVTVSS	high polyreactivity
QVQLVESGGGLVQAGGSLRLSCAASGSTFAPNTMGWYRQAPGKERELVARITSSDGSTTYADSVKGRFTISRDNAKNTVYLQMNSLKPEDTAVYYCAADYGRRWGYDYWGQGTQVTVSS	low polyreactivity
QVQLVESGGGLVQAGGSLRLSCAASGYIFGVYAMGWYRQAPGKERELVAAISYGVGSTYYADSVKGRFTISRDNAKNTVYLQMNSLKPEDNAVYYCAAEDTQVRWSPVRPLEDYWGQGTQVTVSS	low polyreactivity
QVQLVESGGGVVQAGGSLRLSCAASGSTFLLYDMGWYRQAPGKERELVARISSGDSTNYADSVKGRFTISRDNAKNTVYLLMNSLIPEDTAVYYCAAEGGVQEFDYWGQGTQVTVSS	low polyreactivity
QVQHVESGVGLVQAGGSLRLSCAASGSTFDRYAMRWYRQAPGKERELVAAISWSAGRTYYADSVKGRFTISRDNAKNTVYLQMNSLKPEDTAVYYCAADQIVSGTYDYYWGQGTQVTVSS	low polyreactivity
QVQLVESGGGLVQAGGSLRLSCAASGSIFSYYAMGWYRQAPGKERELVAAISQSGGSTYYADSVKGRFTISRDNAKNTVYLQMNSLKPEDTAVYYCNAVARHTRSKYGSWGQGTQVTVSS	high polyreactivity
QVQLVESGGGLVQAGGSLRLSCAASGSTFAQNAMGWYRQEPGKERELVAAISRRGGSTYYADSVKGRFTISRDNAKNTVYLQMISLKPEDTAVYYCAADQPVRQLHRDDYWGQGTQVTVSS	low polyreactivity
QVQLVESGGGLVQAGGSLRLSCAASGRPFGRYAMGWYRPAPGKERELVAAITGSGGSTYYADSVKGRYTMSRDNAKNTVYLQMNSLKPEDTAVYYCAAPQRYYYTAMGYWGQGTQVTVSS	high polyreactivity
QVQLVESGGGLGQAGGSLRLSCAASGRIFDVYAMGWYRQAPGKERELVATISSSGGATYYADSVKGRFTISRDNAKYTVYLQMNSLKPEDTAVYYCATTYRPTFRRHYNYWGQGTQVTVSS	low polyreactivity
QVQLVESGGGLVQAGGSLRLSCAASGRIYVNAMGWYIQAPGKERELVAAIRSGGSTNYADSVKGRFTISRDNAKNTVYLQMNSLKPEDTAVYYCNARRRDYRHWYDYWGQGTQVTVSS	high polyreactivity
QVQLVESGGGLVQAGGSLRVSCAASGLTFKYNALGWYIQAPGKERELVASISSGSTNYADSVKGRFTISRDNAKNSVYLEMNSLKPEDTSVYYCAASVSRGKRFRYGYVFKMDYWGQGTQLTVSS	low polyreactivity
QVQLVESAGGLVQAGGSLRLSCAASGRTFPGNAMGWYRQAPGKERELVATISSGGTTNYADSVKGRFTISRDNAKTTVYLQMNSLKPEDTAVYYCATDTYHHKADYEYWGQGTQVTVSS	low polyreactivity
QVQLVESGGGLVQAGGSLRLSCAASGSTFGINTMGWYRQAPGKERELVATISQRGTRTYYADSVKGRFTISRDNAKNTVYLQMNSLKPEDTAVYYCNKDVYLYYYTRRSGRLDYWGQGTQVTVSS	high polyreactivity
QVQLVESGGGLVQAGGSLRLSCAASGFTFYPYAMGCYRQAPGKERELVDAISNGASTHYADSVKGRFTISRDNAKNTVYLQMNSLKPEDTAVYYCNAYTRYPFYFVTSKYDYWGQGTQVTVSS	low polyreactivity
QVHLVESGGGLVQAGGSLRLSCDASGSIFNTYAMGWYRQAPGKESELVATITSGDRTYYADSVNGRFTISRDNAKNSVYLQMNSLNPEDTAVYYCAKRHWFQYRRPDLGRFDYWGQGTQVTVSS	high polyreactivity
QVQLVESGGGLVQAGGSLRLSCAASGITFRSYAMGWYRQAPGKERELVAAIRSGGSTSYADSVKGRFTISRDNAKTTVYLQMNSLKPEDTAVYYCAAGGYVPLPDITFWKFGYWGQGTQVTVSS	low polyreactivity
QVQLVESGGGLVQAGGSLRLSCAASGRIFYRNAMGWYRQAPGKERELVAAINWSGGSTYYADSVKGRFTISRDNAKNTVYLQMNSLKPEDTAVYYCATGYRQGEYDYWGQGTQVTVSS	low polyreactivity
QVQLVESGGGLVQAGRSLRLSCAASGSTFYYYTMGWYRQEPGKERELVAAISFIGGSTYYADSVKGRFTISRDNAKNTVYLQMNSLKPEDTAVYYCAAESYPLSYSSATLSPSYEYWGQGTQVTVSS	low polyreactivity
QVQLVESGGGLVQAGGSLRLSCAASGSTFRYNTMGWYRQAPGKERELVAAINISSSSTYYADSVKGRFTISRDNAKNTVYLQMNSLKPEDTAVYYCANRDYVPIATDENDDYWGQGTQVTVSS	low polyreactivity
QVQLVESGGGLVQAGGSLRLSCAASGLTFPSNAMGWYRQAPGKERELVAAISKRGGRTYYADSVKGRFTISRDNAKNTVYLQINSLKPEDTAVYYCAAVPWYVSHDFDYWGQGTQVTVSS	high polyreactivity
QVQLVESGGGLVQAGGSLRLSCAASGIIFDTNAMGGYRQAPGKERELVATITQRGGTTYYADSVKGRFTISRDNEKYTVYLQMNSLKPEDTAVYYCNAGPVRLPYDSWGQGTQVTVSS	low polyreactivity
QVQLVESGGGLVQAGGSLRLSCAASGSIIGYYAMGWYRQAPGKERELVAAITASGGSTYYADSVKGRFTISRDNAKNTVYLQMNSLKPEDTAVYHCAADRIGGPGSYLYDYWGQGTQVTVSS	low polyreactivity
QVQLVESGGGLVQAGGSLRLSCAASGRTLYINAMGWYRQAPGKERELVAAIRRGGSTYADSVKGRFTISRDNAKNTVYLQMNSLKPEDTAVYYCAADVPRGKYKGDYWGQGTQVTVSS	high polyreactivity
QVQLVESGGGLVQAGGSLRLSCAASGSTFSVYTMGWYRQAPGKERELVAAISRSGGRTYYADSVKGRFTISRDNAKNTVYLQMNSVKPDDTAVYYCATGYYGTYDYWGQGTQVTVSS	high polyreactivity
